According to US8084213, “Selection” (Domantis Limited):

Key:
scArc-Vk(E5)-HA [1] = target: T1, scArc-Vk(E5)-HA (Phage P22 / human Vk); test: plateau at 3-4 operators; details: tags: C-terminal Vk(E5) dAb fusion, chain copies: 2 scArc per operator (stated)
Protocol: (§1) Tubes from Strep Thermofast 96-well plates are coated by applying 2 µl of 0.05 mg/ml biotinylated rat anti-HA mAb (clone 3F10, Roche), 0.2 µl of 0.5 mg/ml biotinylated protein L (Pierce), 1 µl of biotinylated 1 mg/ml β-galactosidase or 0.1 µl of 5 mg/ml biotinylated BSA (Sigma) respectively in 50 µl aliquots of PBS and incubating for 3 hours at room temperature. The monoclonal high-affinity α-HA mAb 3F10 recognises the C-terminal HA tag, β-galactosidase and protein L can be expected to interact with the $V_\kappa$(E5) light chain domain, while BSA serves as the negative control. At the end of the incubation the coating solution is removed and the first blocking solution consisting of 150 µl of 10 ng/ml biotinylated BSA (Sigma) in PBS is added to the wells and incubated for 15 minutes. At the end of the incubation the wells are washed three times with 150 µl of PBS and blocked additionally for 30 min at room temperature with buffer C+.
(§2) 25 µl S30 in vitro translation reactions (EcoPro T7, Novagen) are assembled according to the manufacturer's instructions and supplemented with 1.5 µl of 1.7 mM PCR-amplified template in 0.1 mg/ml RNA and 0.75 µl of 100 mM oxidized glutathione. […]
(§3) The PCR amplification products are analysed by 1% agarose gel electrophoresis in TAE in the presence of ethidium bromide and imaged using GeneGeius Bio Imaging System (Syngene). […]

Vk(E5)-scArc-HA [2] = target: T2, Vk(E5)-scArc-HA (Phage P22 / human Vk); test: recovery reaches plateau at 3-4 operators; details: tags: N-terminal Vk(E5) dAb fusion, C-terminal HA; chain copies: 2 scArc per operator (stated)
Protocol: as §1, §2, §3

[3] = target: scFv(31IJ1)-(KEAAA)6-scArc-HA (Phage P22 / human scFv?); test: recovery improves with operator number; details: tags: N-terminal scFv fusion, C-terminal HA; chain copies: 2 scArc per operator (inferred)
Protocol: In the solution expression experiments 3 µl of 1.7 nM PCR-amplified pIE7aA, pIE7a2A, pIE7a3A, pIE7a4A, pIE7aA-scFv(31IJ1), pIE7a2A-scFv(31 Ul), pIE7a3A-scFv (31IJ1) or pIE7a4A-scFv(31IJ1) template in 0.2 mg/ml tRNA is added to 25 µl EcoPro T7 in vitro translation mix (Novagen), supplemented with 0.75 µl of 100 mM oxidized glutathione (Sigma) and 0.25 µl […] 3F10 αHA mAb (Roche). Each reactions is split into three 9 µl aliquots. Two of the three in vitro translation aliquots of pIE7aA-scFv(31IJ1), pIE7a2A-scFv(31IJ1), pIE7a3A-scFv(31IJ1) or pIE-7a4A-scFv(31IJ1) are immediately combined with the aliquots of pIE7aA, pIE7a2A, pIE7a3A or pIE7a4A expression reactions respectively, one before and the other after the four-hour incubation at 25° C.
During the translation reaction the streptavidin-coated PCR tubes, cut from Strep Thermofast 96-well plates (Abgene), are first incubated at room temperature for three hours with 50 µl of at least 40 nM biotinylated protein A (Sigma), protein L (Pierce) fluorescein (Molecular Probes) of BSA (Sigma) in PBS. The coating buffer is thereafter removed and any remaining free biotin-binding sites are blocked with a 15 min pulse of 50 µg/ml biotinylated BSA in PBS. The pre-coated wells are thereafter three times washed with PBS and then filled with 100 µl of binding buffer C+ (100 mM KCl, 20 mM Tris, 5 mM MgCl2, 0.05% Tween 20, 0.05 mM EDTA, 1% BSA).
Upon completion of the translation reaction the products are diluted in Buffer C+ and applied to the pre-coated and blocked PCR tubes, allowed to bind for 30 min at room temperature and washed 4 times with 150 µl of Buffer C+. The retained genetic elements are amplified with PCR using a nested set of primers AS79/AS80 and a 30-cycle PCR protocol 30X60C2M. In 30X60C2M protocol 50 µl PCR reactions contain 200 µM each of dATP dTTP dGTP dCTP (Amersham), 300 nM forward and reverse primers AS13+ AS19 and 1 U of SuperTaq DNA polymerase (HT Biotechnology) in 1× polymerase Buffer (HT Biotechnology). […]

scArc-Vk(E5)-HA [4] = target: T1, scArc-Vk(E5)-HA; test: stable linkage even without anti-HA mAb; details: tags: C-terminal Vk(E5) dAb fusion, chain copies: 2 scArc per operator (stated)
Vk(E5)-scArc-HA [5] = target: T2, Vk(E5)-scArc-HA; test: recovery increases with operator number; complex stabilised by 3.4 nM anti-HA mAb 3F10; details: tags: N-terminal Vk(E5) dAb fusion, C-terminal HA; chain copies: 2 scArc per operator (stated)

B1: genetic element with three Arc operators (dsDNA)
DNA 1: GATCTATGATAGAAGCACTCTACTATACTCATCACGAAACGGAGGATCTATGATAGAAGCACTCTACTATACTCATCACGAAACGGAGGATCTATGATAGAAGCACTCTACTAT
DNA 2: ATAGTAGAGTGCTTCTATCATAGATCCTCCGTTTCGTGATGAGTATAGTAGAGTGCTTCTATCATAGATCCTCCGTTTCGTGATGAGTATAGTAGAGTGCTTCTATCATAGATC
- binding result (scArc-Vk(E5)-HA [1]): binds
- binding result (Vk(E5)-scArc-HA [2]): binds
- binding result [3]: binds

B2: genetic element with four Arc operators (dsDNA)
DNA 1: GATCTATGATAGAAGCACTCTACTATACTCATCACGAAACGGAGGATCTATGATAGAAGCACTCTACTATACTCATCACGAAACGGAGGATCTATGATAGAAGCACTCTACTATACTCATCACGAAACGGAGGATCTATGATAGAAGCACTCTACTAT
DNA 2: ATAGTAGAGTGCTTCTATCATAGATCCTCCGTTTCGTGATGAGTATAGTAGAGTGCTTCTATCATAGATCCTCCGTTTCGTGATGAGTATAGTAGAGTGCTTCTATCATAGATCCTCCGTTTCGTGATGAGTATAGTAGAGTGCTTCTATCATAGATC
- binding result [3]: binds

B3: genetic element with two Arc operators (dsDNA)
DNA 1: GATCTATGATAGAAGCACTCTACTATACTCATCACGAAACGGAGGATCTATGATAGAAGCACTCTACTAT
DNA 2: ATAGTAGAGTGCTTCTATCATAGATCCTCCGTTTCGTGATGAGTATAGTAGAGTGCTTCTATCATAGATC
- binding result (scArc-Vk(E5)-HA [4]): binds
- binding result (Vk(E5)-scArc-HA [5]): binds
- binding result [3]: binds
